Results reported in patent US20260092084A1, “PEPTIDE AND ASSEMBLY OR COMPOSITION CONTAINING SAID PEPTIDE” (priority 2022, published 2026).
Square brackets hold non-standard residues; d marks the D form. Ends that are not written are not given here. * marks the point of attachment. 5(6)‑FAM = 5(6)-carboxyfluorescein; pS = N[C@@H](COP(=O)(O)O)C(=O)O; Tfa = O=C(C(F)(F)F)*

Experiments:
[1] = Binding affinity to first target (HA): adsorption isotherm on hydroxyapatite beads; details: hydroxyapatite magnetic beads; 10 mM HEPES (pH 7.4)/1% DMSO; 4° C., 4 hours; tryptophan fluorescence; read-out: Dissociation constant (KD)
Description: The peptides of Examples 1-2 and 1-5 and a HA-binding peptide A (DSpSEEKW: SEQ ID NO: 17) forming the HA binding site of each of the peptides were each evaluated for peptide binding affinity to hydroxyapatite beads (1 μm BcMag™ Hydroxyapatite Magnetic Particles (Bioclone Inc., catalog No. FO-101)). Specifically, the beads were weighed and suspended in a 100 mM sodium phosphate buffer (pH 7.4)/20% ethanol so as to have 30 mg/mL. 267 μL of the suspension of the beads ultrasonicated to be dispersed homogenously was dispensed in a 1.5 mL tube. The beads were fixed with a magnetic stand (Takara Bio Inc., Magnetic Stand (6 tubes), product code: 5328), followed by removal of a supernatant, and then 100 μL of a peptide solution was added. The peptide solution was prepared by diluting the 100 mM stock solution (in DMSO) to 40 μM with 10 mM HEPES (pH 7.4)/1% DMSO and further serially diluting the solution from 4-fold to 5-fold. After stirring at 4° C. for 4 hours, the tube was stood in the magnetic stand for fixing the beads, and a supernatant was recovered. A peptide concentration in the supernatant was measured with a plate reader (VARIO-SCAN, Thermo Fischer Scientific Inc.) based on a fluorescence intensity derived from tryptophan in a sequence (excitation wavelength: 280 nm; emission wavelength: 355 nm) through use of 50 μL of the supernatant. The amount of the peptide bound to the beads was determined by subtracting the peptide concentration in the supernatant from a total peptide concentration, and the adsorption isotherm thus obtained was subjected to curve fitting to a theoretical formula (Microsoft Excel, Microsoft Corporation), thereby determining a dissociation constant KD of the peptide to the hydroxyapatite beads.

[2] = Average particle diameter of peptide assembly by dynamic light scattering; type: physicochemical; details: 10 mM HEPES, 150 mM NaCl buffer (pH 7); 40 mM DMSO stock diluted 100-fold; stood overnight; 25° C.; main peak of scattering intensity
Description: 5 mg of each of the peptides of Examples 1-1 to 1-5 and Reference Examples 1-1 to 1-8 was dissolved in dimethyl sulfoxide (DMSO) to provide a stock solution (40 mM). To a 10 mM HEPES and 150 mM NaCl buffer (pH 7) under stirring with a micromixer (E-36, Taitec Corporation), 4 μL of the stock solution was dropped to be diluted 100-fold. The dilution was vortexed and then left to stand still at room temperature overnight. Then, 200 μL of the dilution was used as a measurement sample and measurement of particle diameter distribution was performed at 25° C. by dynamic light scattering with Litesizer 500 (Anton Paar GmBH). The results determined by defining the main peak of a scattering intensity as the average particle diameter of an assembly are shown in Table 3. Provided that, when a polydispersity index was more than 20%, the main peak was determined with further reference to a volume-based particle diameter distribution.

[3] = mouse, in vivo
Description: Three kinds of fluorescein (FAM)-labeled peptides shown in Table 7 were purchased from Eurofins Genomics K.K. 1 mg of each of the peptides was separately dissolved in 4 mL of PBS to prepare an administration solution (0.25 mg/mL).
Eighteen Crl:CD1 (ICR) mice (male) (Jackson Laboratory Japan, Inc.) were subjected to 7 or more days of adaptation after their arrival and receipt, then divided by three per group into the six groups as in Table 8, and used in the following experiments. The administration solution (1 mg/4 mL/kg) was administered to the tail vein of a non-fasting mouse through use of a syringe equipped with an injection needle. A dose for each individual was calculated from a body weight measured on the day of the administration.
After the completion of the administration, about 0.1 mL of blood was collected from a jugular vein without anesthesia at the predetermined time points of collection shown in Table 8 through use of a heparin-treated syringe equipped with an injection needle. At the final time point of collection, whole blood was collected from a posterior aorta under isoflurane anesthesia. The collected blood was promptly transferred to a polypropylene tube and cooled on ice. The collected whole blood was centrifuged (about 10,000×g, 3 minutes, 4° C.), and the plasma sample was promptly dispensed and light-shielded in a sample storage container. The plasma samples were cryopreserved until measurement (control temperature: about −80° C.).
A freeze-thawed plasma sample (10 μL) was diluted 10-fold with PBS (90 μL), and measured for its fluorescence intensity with a plate reader (SPARK™ multi-detection mode microplate reader, Tecan Group Ltd.) (excitation wavelength: 495 nm; emission wavelength: 520 nm). […] The peptide concentrations in plasma thus obtained were logarithmically plotted against post-administration time, four time points including the final blood collection point were exponentially approximated (Microsoft Excel, Microsoft Corporation), and an elimination half-life was calculated from a slope of the straight line. […]

[4] = Pyrene fluorescence probing, critical aggregation concentration; type: physicochemical; details: pyrene probe 0.1 μM in PBS, 24 hours, room temperature; inflection point of FIG. 5
Description: Fluorescence probing has hitherto been widely used as a technique for measuring the critical micellar concentration (CMC) of a surfactant solution. When hydrophobic fluorescent molecules are added to an aqueous solution of a surfactant and excited, week fluorescence is generated from the fluorescent molecules dispersed in the solution under a state in which the concentration of the surfactant is low. Meanwhile, the concentration of the surfactant is more than the CMC, the hydrophobic fluorescent molecule is incorporated into a micelle surrounded by hydrophobic groups of the surfactant (hydrophobic environment) and emits strong fluorescence. In this experimental example, a change in fluorescent property with a change in peptide concentration was investigated by using pyrene as a fluorescence probe and using a peptide instead of the surfactant. […]
(3) One hundred fifty microliter of the reaction solution was transferred to each well of a plate (Non-Treated Black Polystyrene 96-well plate (Corning 3694)). […] The peak value of a fluorescence intensity (384 nm) was plotted against a peptide concentration (logarithmic value).
This increased fluorescence intensity means formation of a peptide assembly that provides a hydrophobic environment capable of encapsulating pyrene. […] The peptides of Examples 1-2 and 1-5 each had approximately the same fluorescence intensity up to 0.1 mM.

[5] = molecular target: Arg-gingipain (Rgp); assay: Binding affinity to second target (Rgp) by SPR (Biacore-T100); details: immobilized Rgp, 10 mM HEPES (pH 7.4), 150 mM NaCl, 0.05% Tween, 0.2% DMSO, peptide 25-1,600 nM, read-out: Dissociation constant (KD)
Description: The peptide of Example 1-2 and an Rgp-binding peptide A (RRKRR: SEQ ID NO: 16) forming the Rgp binding site of the peptide were each measured for its binding affinity to Rgp by SPR using “Biacore-T100” (GE Healthcare). The measurement was performed according to a common method. Specifically, the measurement of the peptide of Example 1-2 was performed through bonding streptavidin (Extravidin SIGMA E2511) to a chip (CM5 sensor chip) by amine coupling, and then immobilizing Rgp biotinylated with a 20-fold molar ratio of an NHS-biotinylation reagent (EZ-Link™ Sulfo-NHS-SS-Biotin, Thermo Fischer Scientific Inc.). Meanwhile, the measurement of the Rgp-binding peptide A was performed through directly immobilizing Rgp on a CM5 sensor chip by amine coupling from the viewpoint of measurement sensitivity.
Next, the peptide stock solution (in DMSO) was diluted with a running buffer (10 mM HEPES (pH 7.4), 150 mM NaCl, 0.05% Tween, 0.2% DMSO) to prepare peptide solutions having final peptide concentrations of 25 nM, 100 nM, 400 nM, and 1,600 nM. Those peptide solutions having the four concentrations were used to provide sensorgrams indicating weight changes caused by binding between Rgp immobilized on the chip and the peptide. […]

[6] = molecular target: Arg-gingipain (Rgp); assay: SPR (Biacore T100); biotinylated Rgp captured on streptavidin-coupled CM5 chip; peptide as analyte at 25-1,600 nM; KD per peptide
[7] = molecular target: Arg-gingipain (Rgp); assay: SPR (Biacore T100); Rgp amine-coupled directly to CM5 chip; peptide as analyte at 25-1,600 nM

Molecule: DSpSEEKW (DS[pS]EEKW) [HA-binding peptide A, reference compound]
- Kd [1]: 710 nM

Molecule: DSpSEEKW-LLELLELL-KGKILRPR (DS[pS]EEKWLLELLELLKGKILRPR-NH2; N-terminus assumed; SMILES CC[C@H](C)[C@H](NC(=O)[C@H](CCCCN)NC(=O)CNC(=O)[C@H](CCCCN)NC(=O)[C@H](CC(C)C)NC(=O)[C@H](CC(C)C)NC(=O)[C@H](CCC(=O)O)NC(=O)[C@H](CC(C)C)NC(=O)[C@H](CC(C)C)NC(=O)[C@H](CCC(=O)O)NC(=O)[C@H](CC(C)C)NC(=O)[C@H](CC(C)C)NC(=O)[C@H](Cc1c[nH]c2ccccc12)NC(=O)[C@H](CCCCN)NC(=O)[C@H](CCC(=O)O)NC(=O)[C@H](CCC(=O)O)NC(=O)[C@H](COP(=O)(O)O)NC(=O)[C@H](CO)NC(=O)[C@@H](N)CC(=O)O)C(=O)N[C@@H](CC(C)C)C(=O)N[C@@H](CCCNC(=N)N)C(=O)N1CCC[C@H]1C(=O)N[C@@H](CCCNC(=N)N)C(N)=O) [Example 1-5]
- Kd [1]: < 40 nM
- Average particle diameter [2]: 5 nm

Molecule: 5(6)-FAM-GYSEWRKWEL-LLLLLLGG-HWRGWV ({5(6)‑FAM}-GYSEWRKWELLLLLLLGGHWRGWV-NH2) [Example 3-1]
- Elimination half-life [3]: 133 h

Molecule: DSpSEEKW-LLELLELL-RRK(Tfa)RR (DS[pS]EEKWLLELLELLRRK(Tfa)RR-NH2; N-terminus assumed; SMILES CC(C)C[C@H](NC(=O)[C@H](CC(C)C)NC(=O)[C@H](CCC(=O)O)NC(=O)[C@H](CC(C)C)NC(=O)[C@H](CC(C)C)NC(=O)[C@H](CCC(=O)O)NC(=O)[C@H](CC(C)C)NC(=O)[C@H](CC(C)C)NC(=O)[C@H](Cc1c[nH]c2ccccc12)NC(=O)[C@H](CCCCN)NC(=O)[C@H](CCC(=O)O)NC(=O)[C@H](CCC(=O)O)NC(=O)[C@H](COP(=O)(O)O)NC(=O)[C@H](CO)NC(=O)[C@@H](N)CC(=O)O)C(=O)N[C@@H](CCCNC(=N)N)C(=O)N[C@@H](CCCNC(=N)N)C(=O)N[C@@H](CCCCNC(=O)C(F)(F)F)C(=O)N[C@@H](CCCNC(=N)N)C(=O)N[C@@H](CCCNC(=N)N)C(N)=O) [Example 1-1]
- critical aggregation concentration (CAC) [4]: 50 µM
- Average particle diameter [2]: 380 nm

Molecule: DSpSEEKW-LLELLELL-RRKRR (DS[pS]EEKWLLELLELLRRKRR-NH2; N-terminus assumed; SMILES CC(C)C[C@H](NC(=O)[C@H](CC(C)C)NC(=O)[C@H](CCC(=O)O)NC(=O)[C@H](CC(C)C)NC(=O)[C@H](CC(C)C)NC(=O)[C@H](CCC(=O)O)NC(=O)[C@H](CC(C)C)NC(=O)[C@H](CC(C)C)NC(=O)[C@H](Cc1c[nH]c2ccccc12)NC(=O)[C@H](CCCCN)NC(=O)[C@H](CCC(=O)O)NC(=O)[C@H](CCC(=O)O)NC(=O)[C@H](COP(=O)(O)O)NC(=O)[C@H](CO)NC(=O)[C@@H](N)CC(=O)O)C(=O)N[C@@H](CCCNC(=N)N)C(=O)N[C@@H](CCCNC(=N)N)C(=O)N[C@@H](CCCCN)C(=O)N[C@@H](CCCNC(=N)N)C(=O)N[C@@H](CCCNC(=N)N)C(N)=O) [Example 1-2]
- Kd [5]: 1.3 nM
- Kd [1]: 1400 nM
- Average particle diameter [2]: 250 nm

Molecule: 5(6)-FAM-GYSEWRKWEL ({5(6)‑FAM}-GYSEWRKWEL-NH2) [Comparative Example 1]
- Elimination half-life [3]: 1.3 h

Molecule: RRKRR [Rgp-binding peptide A, reference compound]
- Kd [5]: 400 nM

Molecule: 5(6)-FAM-GYSEWRKWEL-LLLLLL ({5(6)‑FAM}-GYSEWRKWELLLLLLL-NH2) [Comparative Example 2]
- Elimination half-life [3]: 16.7 h

B1: peptide of Example 1-2 (DSpSEEKW-LLELLELL-RRKRR) (peptide)
peptide: DSSEEKWLLELLELLRRKRR
modifications: pS = phosphorylated serine (third residue of DSpSEEKW); C-terminal carboxyl group amidated
- Kd [6]: 1.3 nM

Molecule: RRKRR [Rgp-binding peptide A (RRKRR)]
- Kd [7]: 400 nM
